Here are results for one molecule from article PMC8660799, “Cryo-EM reveals unique structural features of the FhuCDB Escherichia coli ferrichrome importer” (Communications Biology, 2021).

Assay [1] addresses T1, FhuCB with FhuB Q507A, T510A (Escherichia coli, UniProt P07821 1-265; P06972 1-660, Q507A | T510A, red-tris-NTA 2nd generation dye on the His-tag).
T1 construct: FhuC, ATPase subunit, Escherichia coli; as in Dm2; FhuB, membrane subunit, Escherichia coli, 660 residues; Mutant made on the FhuCB-pET15b construct by direct mutagenesis; also called Q507T510; source: E. coli BL21(DE3) C43, purified (TALON, Superose 6 gel filtration) in LMNG; not shown: His-tag, N-terminal, kept; copies: 2 + 1
T1 sequence (looked up) 1: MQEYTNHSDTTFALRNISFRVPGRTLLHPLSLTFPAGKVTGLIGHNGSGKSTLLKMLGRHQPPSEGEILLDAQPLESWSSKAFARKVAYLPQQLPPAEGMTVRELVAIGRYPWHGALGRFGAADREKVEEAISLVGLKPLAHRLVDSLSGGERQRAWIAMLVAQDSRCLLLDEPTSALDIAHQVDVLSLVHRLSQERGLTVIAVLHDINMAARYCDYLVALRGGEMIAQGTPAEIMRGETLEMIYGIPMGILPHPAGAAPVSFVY
T1 sequence (looked up) 2: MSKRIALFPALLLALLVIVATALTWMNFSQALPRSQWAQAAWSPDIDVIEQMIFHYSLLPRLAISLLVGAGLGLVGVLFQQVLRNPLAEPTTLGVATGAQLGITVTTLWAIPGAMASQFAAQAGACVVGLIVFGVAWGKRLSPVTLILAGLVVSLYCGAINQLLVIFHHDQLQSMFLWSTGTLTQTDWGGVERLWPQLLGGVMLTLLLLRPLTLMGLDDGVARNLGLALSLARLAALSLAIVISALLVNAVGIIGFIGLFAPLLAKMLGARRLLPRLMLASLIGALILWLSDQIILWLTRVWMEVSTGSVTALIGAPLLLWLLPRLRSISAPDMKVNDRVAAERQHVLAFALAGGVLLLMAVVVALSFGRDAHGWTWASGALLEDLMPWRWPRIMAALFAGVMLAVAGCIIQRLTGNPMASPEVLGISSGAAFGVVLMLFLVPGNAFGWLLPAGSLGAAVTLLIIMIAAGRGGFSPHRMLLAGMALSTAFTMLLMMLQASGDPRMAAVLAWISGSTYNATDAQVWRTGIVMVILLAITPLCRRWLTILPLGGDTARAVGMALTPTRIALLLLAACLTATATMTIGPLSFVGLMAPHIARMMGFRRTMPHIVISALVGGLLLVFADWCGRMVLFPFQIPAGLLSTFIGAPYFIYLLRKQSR
Put plainly: MST; 40 nM FhuCB (wild type or FhuB mutant) in detergent, His-tag labelled with red-tris-NTA 2nd generation dye; serial dilution of 1.6 μM FhuD with substrate ferrichrome; with ATP-Mg; Monolith NT.115pico, 20% LED power, medium MST power. To be noted: both partners purified.

In another assay the target is T2, FhuCB with FhuB R390A (Escherichia coli, UniProt P07821 1-265; P06972 1-660, R390A, red-tris-NTA 2nd generation dye on the His-tag).
T2 construct: FhuC, ATPase subunit, Escherichia coli; as in Dm2; FhuB, membrane subunit, Escherichia coli, 660 residues; Mutant made on the FhuCB-pET15b construct by direct mutagenesis; source: E. coli BL21(DE3) C43, purified (TALON, Superose 6 gel filtration) in LMNG; not shown: His-tag, N-terminal, kept; copies: 2 + 1
T2 sequence (looked up) 1: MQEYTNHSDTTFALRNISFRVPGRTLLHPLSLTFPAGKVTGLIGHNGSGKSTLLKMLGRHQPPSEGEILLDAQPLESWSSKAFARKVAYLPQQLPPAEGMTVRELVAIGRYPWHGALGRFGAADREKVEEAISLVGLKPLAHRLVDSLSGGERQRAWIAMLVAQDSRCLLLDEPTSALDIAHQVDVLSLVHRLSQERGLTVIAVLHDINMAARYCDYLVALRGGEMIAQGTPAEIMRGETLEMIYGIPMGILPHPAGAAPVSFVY
T2 sequence (looked up) 2: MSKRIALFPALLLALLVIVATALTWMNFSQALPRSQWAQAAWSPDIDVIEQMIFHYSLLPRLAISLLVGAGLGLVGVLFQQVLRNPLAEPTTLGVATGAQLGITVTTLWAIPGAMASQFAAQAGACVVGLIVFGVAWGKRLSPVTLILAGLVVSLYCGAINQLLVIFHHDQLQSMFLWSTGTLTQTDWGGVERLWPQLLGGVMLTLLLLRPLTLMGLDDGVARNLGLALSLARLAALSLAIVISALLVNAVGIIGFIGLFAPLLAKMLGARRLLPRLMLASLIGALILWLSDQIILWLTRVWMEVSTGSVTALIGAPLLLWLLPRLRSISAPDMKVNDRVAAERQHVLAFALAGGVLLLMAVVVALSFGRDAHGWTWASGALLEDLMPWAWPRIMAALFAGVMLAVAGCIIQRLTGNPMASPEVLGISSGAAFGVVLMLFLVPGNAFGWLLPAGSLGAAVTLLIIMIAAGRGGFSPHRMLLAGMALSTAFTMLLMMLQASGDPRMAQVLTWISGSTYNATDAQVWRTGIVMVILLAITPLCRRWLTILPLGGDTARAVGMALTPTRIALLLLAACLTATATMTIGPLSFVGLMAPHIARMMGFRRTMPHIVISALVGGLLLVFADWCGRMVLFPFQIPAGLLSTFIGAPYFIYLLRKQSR
Described as above. To be noted: both partners purified.

B1: FhuD (natural protein, Escherichia coli)
chain: AAIDPNRIVALEWLPVELLLALGIVPYGVADTINYRLWVSEPPLPDSVIDVGLRTEPNLELLTEMKPSFMVWSAGYGPSPEMLARIAPGRGFNFSDGKQPLAMARKSLTEMADLLNLQSAAETHLAQYEDFIRSMKPRFVKRGARPLLLTTLIDPRHMLVFGPNSLFQEILDEYGIPNAWQGETNFWGSTAVSIDRLAAYKDVDVLCFDHDNSKDMDALMATPLWQAMPFVRAGRFQRVPAVWFYGATLSAMHFVRVLDNAIGGKA
notes: In 'FhuD-ferrichrome' the protein was loaded with the small molecule ferrichrome; also called FhuD-ferrichrome (when loaded with ferrichrome)
What is called Kd is the free concentration of one partner at which half of the binding sites on the other are occupied at equilibrium, for simple one-to-one binding. A high value points to lower affinity. For B1, the Kd was determined as 79.2 nM in assay [1] and 75.8 nM with FhuCB with FhuB R390A.
